Results on one molecule are retold here after US20100015126A1, “Methods of Binding of Cross-Beta Structures By Chaperones” (priority 2006, published 2010).

For one experiment, the target named is T1, human BiP (Homo sapiens, UniProt P11021).
T1 construct: The human BiP gene except the signal peptide encoding region was obtained from Geneart (Germany); linker […]; made in house; host or cells: HEK 293E cells, transient transfection, PABC674 vector; secreted into the medium
Nature of the experiment: ELISA: binding of BiP-FLAG-His to immobilized (misfolded) protein ligands. Conditions: ligands coated at 5 μg/ml; 6BB peptides and oxLDL 50 μg/ml. The method, then:
Enzyme Linked Immunosorbent Assay for Testing of Chaperone Binding to Misfolded Proteins
Binding of chaperones to immobilized (misfolded) protein ligands was determined using an enzyme linked immuno sorbent assay (ELISA) approach. For this purpose 50 μl/well of potential ligands at indicated concentrations or coat buffer only for control and background measurement purposes, were coated overnight at 4° C. or coated for 1 h at room temperature, with motion, in 50 mM NaHCO3 pH 9.6 (coat buffer). In general, ligands were coated at 5 μg/ml, unless stated otherwise. For example, BiP binding peptides 6BB# and oxLDL were coated at 50 μg/ml. Native haemoglobin (Sigma-Aldrich, H7379), albumin, IgIV Gammagard and ovalbumin controls were prepared from lyophilized stocks. The controls were prepared by dissolving lyophilized proteins at 1 mg/ml in PBS upon resuspending by pipetting, followed by a 30 minutes period at the roller device, at room temperature. The protein solutions were centrifuged for 10 minutes at 16,000*g and diluted in coat buffer. […] After 5 washes with wash buffer followed by two washes with PBS, binding of antibodies was assessed. […] Plates were read at 450 nm. Triplicates were averaged and standard deviations calculated. […] Subsequently, sub-optimal concentrations of chaperones for binding to misfolded protein ligands are determined, and these concentrations are used for inhibition studies. […]
(In general: ELISA stands for enzyme-linked immunosorbent assay.)

Experiment [1] addresses T2, human mitochondrial HSP60 (Homo sapiens, UniProt P10809).
T2 construct: Dr. W. van Eden, Utrecht University; host or cells: E. coli
Nature of the experiment: ELISA: binding of HSP60 to immobilized (misfolded) protein ligands. The method, then:
Recombinant human HSP60 with N-terminal His-tag was a kind gift of Dr. R. van der Zee and Prof. Dr. W. van Eden (Institute of Infectious Diseases and Immunology, Faculty of Veterinary Medicine, Utrecht University, Utrecht, The Netherlands), and was supplied in lyophilized form. The HSP60 was produced in E. coli and purified using Nickel-Sepharose. The HSP60 was lyophilized from 20-40 mM ammonium-bicarbonate solution, after purification, and stored at −20° C. The construct lacks the mitochondrial signal sequence. […] Before use, the lyophilized protein is dissolved at room temperature at 1 mg/ml in 20-40 mM NH4HCO3, resulting in a pH of 7.0. Aliquots are stored at −20° C. or −80° C. The mitochondrial HSP60 is a functional dimer of heptamers (MW(HSP60 monomer)=˜58 kDa), and is involved in multimer protein assembling and aids in transport of unfolded proteins across membranes. For the binding studies, at two occasions separate HSP60 solutions were prepared originating from the same batch of purified protein, lyophilized in separate Eppendorf cups.
Binding of chaperones to immobilized (misfolded) protein ligands was determined using an enzyme linked immuno sorbent assay (ELISA) approach. […] After 5 washes with wash buffer followed by two washes with PBS, binding of antibodies was assessed. […] Plates were read at 450 nm. […]

T1 sequence (P11021 19-654): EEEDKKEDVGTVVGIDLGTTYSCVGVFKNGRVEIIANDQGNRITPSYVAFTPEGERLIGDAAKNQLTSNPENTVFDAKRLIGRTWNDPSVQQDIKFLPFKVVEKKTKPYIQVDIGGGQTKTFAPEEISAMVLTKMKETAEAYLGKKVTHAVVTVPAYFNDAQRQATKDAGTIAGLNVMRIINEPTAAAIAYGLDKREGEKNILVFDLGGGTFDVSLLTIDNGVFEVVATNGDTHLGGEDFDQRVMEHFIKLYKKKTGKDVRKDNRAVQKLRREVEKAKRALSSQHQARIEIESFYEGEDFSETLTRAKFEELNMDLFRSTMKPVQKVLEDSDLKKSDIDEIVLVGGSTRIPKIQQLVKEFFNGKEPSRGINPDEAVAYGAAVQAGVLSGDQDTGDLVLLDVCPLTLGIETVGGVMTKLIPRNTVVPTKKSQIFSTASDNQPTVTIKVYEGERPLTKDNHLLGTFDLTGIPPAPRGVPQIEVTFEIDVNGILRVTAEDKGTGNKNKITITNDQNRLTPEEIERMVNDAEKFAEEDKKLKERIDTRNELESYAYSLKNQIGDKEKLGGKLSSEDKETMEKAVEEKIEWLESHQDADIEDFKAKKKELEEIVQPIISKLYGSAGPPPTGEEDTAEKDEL
T2 sequence (P10809 27-573): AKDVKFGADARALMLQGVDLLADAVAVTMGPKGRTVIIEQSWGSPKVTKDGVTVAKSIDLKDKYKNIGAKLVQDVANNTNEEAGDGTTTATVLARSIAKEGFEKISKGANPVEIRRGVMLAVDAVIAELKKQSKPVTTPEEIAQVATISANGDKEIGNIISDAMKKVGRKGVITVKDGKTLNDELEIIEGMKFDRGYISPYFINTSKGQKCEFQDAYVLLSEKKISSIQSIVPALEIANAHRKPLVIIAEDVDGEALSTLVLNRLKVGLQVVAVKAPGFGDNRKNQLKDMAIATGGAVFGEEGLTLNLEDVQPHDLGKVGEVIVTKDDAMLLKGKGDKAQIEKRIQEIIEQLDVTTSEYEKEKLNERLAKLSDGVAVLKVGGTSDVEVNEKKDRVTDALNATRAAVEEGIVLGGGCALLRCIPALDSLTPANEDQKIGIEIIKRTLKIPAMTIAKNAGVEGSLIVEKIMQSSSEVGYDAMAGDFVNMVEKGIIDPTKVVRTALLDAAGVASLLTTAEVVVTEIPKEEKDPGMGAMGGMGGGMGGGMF

B1: ovalbumin: native chicken ovalbumin control (protein)
chain: GSIGAASMEFCFDVFKELKVHHANENIFYCPIAIMSALAMVYLGAKDSTRTQINKVVRFDKLPGFGDSIEAQCGTSVNVHSSLRDILNQITKPNDVYSFSLASRLYAEERYPILPEYLQCVKELYRGGLEPINFQTAADQARELINSWVESQTNGIIRNVLQPSSVDSQTAMVLVNAIVFKGLWEKAFKDEDTQAMPFRVTEQESKPVQMMYQIGLFRVASMASEKMKILELPFASGTMSMLVLLPDEVSGLEQLESIINFEKLTEWTSSNVMEERKIKVYLPRMKMEEKYNLTSVLMAMGITDVFSSSANLSGISSAESLKISQAVHAAHAEINEAGREVVGSAEAGVDAASVSEEFRADHPFLFCIKHIATNAVLFFGRCVSP
Turning to B1, the “Binding of concentration series of BiP to coated ligand” value with human BiP is given as “did not bind”. Further, in experiment [1], the “Binding of concentration series of HSP60 to coated ligand” value is “did not bind”.
